Laboratory results as given in the domain aggregation screens of Martell et al. (2025).

Assay: soluble fraction after stress (log2 fold change); higher = more stays soluble; pooled small domains, quantitative proteomics
Conditions: stress: pH 4
Method in brief: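 High-throughput quantitative proteomics was run on pooled custom libraries of small protein domains following pH 4 stress. Fold changes are on a log2 scale; higher values mean more of a domain remained soluble. The fold change in soluble amount is taken as a measure of aggregation propensity.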

Sequence: HMNYAVTAARRESILNAALEIFGKSGYNGSSVKQVALAVGMTEAGVLHHFGTKSNLLIEVLRV
- soluble fraction (log2): ≥ 0.43

Sequence: HMNYLDVNIPVTSAVWMGKQLPEMGTLIYLTPDKDVEGMLFIKQATKDKPDGEYIEAKVLGYKEGRVLFDF
- soluble fraction (log2): -1.48

Sequence: HMPAEEVPLYKAVVVTTPPNRLRVRFSPAGDFKRWLQSGEEVDVYQELGDWRRIEPNGWSSAEWLQRVG
- soluble fraction (log2): 0.00708

Sequence: HMPAGWIPARIRLADYPQLRSLAWHVQGIDTLTPTEALDIYERNARHLDAQAMSAQEQDLLASLRLALS
- soluble fraction (log2): -1.06

Sequence: HMPALPGNELLRNLMLEHGLKQVDLAEIGSQGVVSEILSGKRRINRRHADLLARRFSLPAELFSR
- soluble fraction (log2): -0.0865

Sequence: HMPANLTPDYFKAEQWYRSASTNEEKMLALEQMLAVMPKHKGTEHLQADLKRKLSQLKDASAQ
- soluble fraction (log2): ≥ 0.43

Sequence: HMPAPAPDIPYHSRVSVRRADGFYEGTWTNTAPILDYTGRWMVNVSLGGKRVFVPVEEVVVH
- soluble fraction (log2): -0.384

Sequence: HMPAPKPSGALSLKDEPLYAASDSKRRSGTVSGTYYRWDGENVNGRMRITNKQENIGKAGQVTGWITAH
- soluble fraction (log2): -0.00233

Sequence: HMPASTSIPYSDFISRVESGDVQEAKIGESAITGTYKDGSQFKTVKPPTLDTNLMPTLIQNKVNVVGVEP
- soluble fraction (log2): 0.0215

Sequence: HMPAVGGVVKGAVVSVGRNEVRLDIGGLAIGIIRGPELDKHVDLRIGDEVEATVITLDNEFGELELSL
- soluble fraction (log2): -1.73

Sequence: HMPAVTEQTKTNLRRAFWQLYEQKPIQKITVKQITDLAGYNRGTFYLYFKDVYDLLDDIENK
- soluble fraction (log2): -0.584

Sequence: HMPAVTEQTRANLRTAFWSLYREKPTSKITVREITDRAGYNRATFYLYYRDVYDLFEQIEQEIL
- soluble fraction (log2): -1.36

Sequence: HMPDAGQRRYLELVTALAGARSLTIDDLERRAIRFAEWGNGYSGRTARQFIDTLLQDRGVAEEL
- soluble fraction (log2): -0.935

Sequence: HMPDAIPLETIIKNVNVLAGFLINSKTFTEDDIVMAYNNIMKIKGDHTDEKTLTNDVYTLLTEMN
- soluble fraction (log2): -1.22

Sequence: HMPDIFDRGTAHITDAASGVAITFTRTFRIPPEVTMTHKGGTVVAIARLVGSITTGGFTAVLENT
- soluble fraction (log2): -0.0848

Sequence: HMPDLQDTLYRLVPEDGSAIGNQSLREKFLSTAKDASDADFEAARDGLVEQGKLTKGKGRGGSVRRAEP
- soluble fraction (log2): 0.397

Sequence: HMPDLSMLDEVLDEYRSQAGSLVTVLQKAQDLYGYLPLTILRHIAEEMNIKPAQVYGVATFYTQFRL
- soluble fraction (log2): -0.866

Sequence: HMPDRQKDIQNWQQIAETLLNMLDKYVAALETGKTGLAEAYKAIFAETLRRLDDRLDPEQFLP
- soluble fraction (log2): -1.3

Sequence: HMPDTETLTPRQRQILDLVQELGFTTIETLAERFGVSAQTVRREIIRLQAGNFLQRFHGGAGLASGGIRSA
- soluble fraction (log2): -0.325

Sequence: HMPDYAFEGVVIKLTHRDYDRWKAGFPDVDLPPYLTARDAWLSEQTPADRKNWFVSTATDLRNFQKREAI
- soluble fraction (log2): -0.362

Sequence: HMPEDQISYTDLIKQINDGNVEKIKMTVGSTTIKVNLKEQEEPKTAIVPSTQAFIELVQEKVQDGNEITLI
- soluble fraction (log2): -0.39

Sequence: HMPEITPAMIKALLSSLSEELAFASVTKVYAVLHNLFKAALLDDTIDRNPMDKVPRPRKSKDAAL
- soluble fraction (log2): -0.424

Sequence: HMPELPEVETSRRGIEPHLVGATILHAVVRNGRLRWPVSEEIYRLSDQPVLSVQRRAKYLLLELQA
- soluble fraction (log2): 0.369

Sequence: HMPELSPEERAIIETLQKNNDLQVNIIAIKTGMDMGSLSAVLFDLEMKGLVKLLAGGMYHLI
- soluble fraction (log2): -0.112

Sequence: HMPEPAPALPAKTRVSIRRETGGIIWHEGAWTISPPIRAYDGRWYVAVTTARKGIEFVPVSSVIRS
- soluble fraction (log2): -0.0262

Sequence: HMPEPMKLSDLPPELWQRVSDLFDEVIDLPETDRIPYIRNLWGSEPLVAKELMALLVAAANVD
- soluble fraction (log2): -1.1

Sequence: HMPESFSEMQKRTGVGEFSDDALSAKYVDSIDADVMSLDEYIMKVRGISLDDLEAERALRAR
- soluble fraction (log2): -0.884

Sequence: HMPETAQLTDIQVSRSQAHTGIFSLHYYLTGTDSRGERVRLEISGDDYTRLSGSSSVTVEYYRHTGRIVRY
- soluble fraction (log2): -0.552

Sequence: HMPETYVVFSKDGYANLRRGTTINSEILDVLDNGEYVTKLDEVGEWYRVEYADFDGGYIHKSQLKNI
- soluble fraction (log2): -1.58

Sequence: HMPFDRTVQLAGARARQLQALPRYREVLRLLDEGMNPREIGQVLDPPVTRQRASALIQQAKRAQMLGLFED
- soluble fraction (log2): -0.0649

Sequence: HMPFNLKSLADRLSHVFPGLVKMRDDIGAIIVMDKIKVTEHGVTEGGGLAADRVRAVYNEFIKEY
- soluble fraction (log2): 0.334

Sequence: HMPFSLHGVNEGSRNDNAARIAGYLISKNLNLDFVRIFLHNWNRDNKPPLPQQEIDSVVDNVKKTHDRKN
- soluble fraction (log2): -0.0731

Sequence: HMPGEATVPSVIGMTKAEAKAKLQASGFELGYSEFVASDKPKGEIVEQDPGAGETAKGGTEVNVKISDGS
- soluble fraction (log2): -0.187

Sequence: HMPGLDTTILSDILSLKKELPSRSAAKILIMLILAKRIEEGSLNLRTINRILNQYGYTRESLL
- soluble fraction (log2): 0.327

Sequence: HMPGLQSVTPAELKIGMYVILPLAWDEHPFLKNHFLIQSEAQINKIRELGTKGIQIDLSKSHP
- soluble fraction (log2): 0.0126

Sequence: HMPGMLVVYVTGAVRQPGRMVTLAAGSRVSDAIDAAGGLADDADAQALNLSARLNDGDLVHVPSALD
- soluble fraction (log2): -0.227

Sequence: HMPHILEITSSKILDELQDEKKMVYFHFEKQSNQYVYRLIFNSKNELMEFKKSLEKNSSILDVRADM
- soluble fraction (log2): -0.354

Sequence: HMPHITDAEWEVMRVVWANHHVTSKEVISILEDKMNWKATTIKTLLGRLVEKGALSTEQDGKKFIYTAR
- soluble fraction (log2): -0.622

Sequence: HMPHTDATDKQIIALILETLKDGQKHSVSEMTFPGIPREKTAQLLHQMIEEETVRIQNGVLFLPH
- soluble fraction (log2): -0.118

Sequence: HMPIDNTLLSRITSLGVSTTEAEKLISKHGEEALKANLEVVEERLSKPNLPLLDSPAAYLKTALKNG
- soluble fraction (log2): 0.224

Sequence: HMPIEQVEVPNLTNMTREEAESTLTSLNLKAQVHEEANEADEGKVFKQGTNTGEMVDEGSTIEIWVS
- soluble fraction (log2): -0.555

Sequence: HMPIHAGERLTLRLAGEGREAGQAIGYLEDGTLVIVERARHLIGQDVTVEVTRTLQTAGGRLVFAHLVE
- soluble fraction (log2): -0.896

Sequence: HMPKDLEKRAAILAAAKHLFPVHGFEGTSMDAIAALANVSKLTVYSHFKDKESLFTEAIREK
- soluble fraction (log2): 0.163

Sequence: HMPKDMAKRASILTAASKLFVQHGYGGVSMDQIAAEAGVSKLTVYSHYGDKDSLFAAAVQAH
- soluble fraction (log2): 0.163

Sequence: HMPKELAPYDILARYYLTVNNSKQSIALLEQYLDKAGSAPAALKAKLLLAGILYPSGNKERAEKLVEEVIK
- soluble fraction (log2): -0.136

Sequence: HMPKETFLNLDEEKRQAIINVLLKNFSEQHISQVKVSAIVSGIGMSRGAFYKYFEDLEDAYRFTISYFSA
- soluble fraction (log2): -0.0967

Sequence: HMPKLTKEEIQFIDNYLKNSGVEYIDTRAEVVDHVASEIESRLSANNTTNFYEEFKVYMVQHKETLLK
- soluble fraction (log2): -0.96

Sequence: HMPKLVGEVMQTLDALRREKGLSLLLVEQNARAALGVVDRVYVLERGRVVFEGSAKEAMEDQDVMEFYLG
- soluble fraction (log2): 0.0193

Sequence: HMPKRSKDEAELEFLEMLRDNQVDSTWSFGKIISQLGSTDPRYWMVDDDPLWKRQIFEKYLSNR
- soluble fraction (log2): -1.79

Sequence: HMPLDISDDSKAVLKLLKNDSNELNTVKSASGLSNKKWDKTIKELTKNKIVSVSKTEDGLYIHLI
- soluble fraction (log2): 0.336

Sequence: HMPLDYQELRNISPQAARQAILQILKANKGNVSQTARMLGITRKTVYKAMAKREAGNLDDGSRAPK
- soluble fraction (log2): 0.265

Sequence: HMPLLELPDDFYPAWKPKTIYVQGQRIMLDGVAFEAKWWTQGDNPASGQADPGSSPWRTLTQEEIAKLLE
- soluble fraction (log2): -0.56

Sequence: HMPLLKIGAQGHDVRVVQEALQRAGYAIEGVTGIFDEATREAVLAFQRDQQLTESGTVDRATWHALRR
- soluble fraction (log2): -0.52

Sequence: HMPLLSPRQLDVLSLAAGGLSDAQIAGRLVLSESTVRVHFHHIIEKLGVTDRAGAIAWYEQSRS
- soluble fraction (log2): -0.378

Sequence: HMPLNAFDVAGYRLGYGGGYFDRTLAALSPRPLAVGVGFEINRLESIRPEAHDQRLDWIVTENGAFRPA
- soluble fraction (log2): -0.944

Sequence: HMPLNAHIVGRGKRDRRGKRGAPYSIVLELGRDENGKRIQKWYSGYPTKAAAEEDKIRMLRELQTGEYVPQ
- soluble fraction (log2): 0.153

Sequence: HMPLPFSPVMFVGTKSGAQTDLDGNYKIETYYSSDSLKVVVLGYAPLAKKVKQGTTSVVNFELSAAS
- soluble fraction (log2): 0.104

Sequence: HMPLPLYVQIKESLRGQIFDGTYGEHERLPSENDLMSSFGVSRITVRQALSDLEKEELIFKVPGKGAFVSR
- soluble fraction (log2): -1.28

Sequence: HMPLQKNRPKIKPQKVVFLFSVEWMWSPAHNRIDSYFINIKPSRYYLWNSFFDRHSFSDYWDFIGYTEN
- soluble fraction (log2): 0.22

Sequence: HMPLSDAEKAAAIATQAKERALKLSPEMISYLLRHASRDMRTLSMLVVALDQYTLEQKRPVTLPLLRELLS
- soluble fraction (log2): -0.0153

Sequence: HMPMIQHFHRMISAALGISEKQIVQTLGLLNDGATIPFISRYRKEVTGGLDEVQIESIKTHYEKLNEIAK
- soluble fraction (log2): -0.999

Sequence: HMPMPQDEVSYALGLSIGQNFKASGIKAITSEDFIAGLQDALAEREPQMTTERAREVINQLFMRLQQEESE
- soluble fraction (log2): -0.784

Sequence: HMPMTDYQLIRSNRRTIALQITRDARVVVRAPLYASEADIRRFVESHRAWIESHLDRQRARTD
- soluble fraction (log2): 0.201

Sequence: HMPMTRILFLPDDRTILQFDSAEPAEDLVSAVNAGRWLPPEPYRSGFGLGLPENRLRASRQGALVVVMLS
- soluble fraction (log2): -1.19

Sequence: HMPNDYRKKLEILAKEKGAEYLHTMLTEVDPKSALQIHTNNIKRTIRALEFYHQTGMKISEHNEAEREK
- soluble fraction (log2): 0.0478

Sequence: HMPNIHVVFAEEWTDRRLDKVLSEYFDGYSRSFIKKLFDDGLILVNSKAVKPSYKVRAGDMIDISVPDPV
- soluble fraction (log2): -0.465

Sequence: HMPNPALESARPAFEAFLSRFSDGEAMRGPAWGLWSLLHRKGNAPTASHAAGRDGMGVLAFLRHWQWG
- soluble fraction (log2): -0.551

Sequence: HMPPDLSEAIQKRIEGKTDEALEILRKLYNEYPESTEIITMLGRTLLDAEEYALAAFRLEQALDLGG
- soluble fraction (log2): -1.22

Sequence: HMPPDVIENIFKNDANKIIDLYNMAPRGQKETIVEMIKNKRLQGINVDANVLVKLGELTGIDFVN
- soluble fraction (log2): -1.37
